Laboratory results from paper PMC4602035.

Legend:
[1] = biological target: SecYEG in nanodiscs (titration with FtsY(NBD)) (E. coli) (UniProt P0AGA2); experiment: other fluorescence titration
[2] = biological target: nontranslating ribosomes (E. coli) (UniProt P0ADZ0); experiment: co-sedimentation
[3] = biological target: SecY(S111C)EG labeled with MDCC at position 111 of SecY (E. coli) (UniProt P0AGA2); experiment: FRET or BRET

FtsY(A26C) labeled with NBD at position 26 (from UniProt P10121 1-497) (receptor)
Kd [1]: 160 nM

B1: SRP present in the ribosome and RNC preparations (complex)
chain: MFDNLTDRLSRTLRNISGRGRLTEDNVKDTLREVRMALLEADVALPVVREFINRVKEKAVGHEVNKSLTPGQEFVKIVRNELVAAMGEENQTLNLAAQPPAVVLMAGLQGAGKTTSVGKLGKFLREKHKKKVLVVSADVYRPAAIKQLETLAEQVGVDFFPSDVGQKPVDIVNAALKEAKLKFYDVLLVDTAGRLHVDEAMMDEIKQVHASINPVETLFVVDAMTGQDAANTAKAFNEALPLTGVVLTKVDGDARGGAALSIRHITGKPIKFLGVGEKTEALEPFHPDRIASRILGMGDVLSLIEDIESKVDRAQAEKLASKLKKGDGFDLNDFLEQLRQMKNMGGMASLMGKLPGMGQIPDNVKSQMDDKVLVRMEAIINSMTMKERAKPEIIKGSRKRRIAAGCGMQVQDVNRLLKQFDDMQRMMKKMKKGGMAKMMRSMKGMMPPGFPGR
percent of ribosomes/RNCs with SRP bound [2]: 25%

B2: FtsY(F196C) labeled with BODIPY FL at position 196 (receptor)
chain: MAKEKKRGFFSWLGFGQKEQTPEKETEVQNEQPVVEEIVQAQEPVKASEQAVEEQPQAHTEAEAETFAADVVEVTEQVAESEKAQPEAEVVAQPEPVVEETPEPVAIEREELPLPEDVNAEAVSPEEWQAEAETVEIVEAAEEEAAKEEITDEELETALAAEAAEEAVMVVPPAEEEQPVEEIAQEQEKPTKEGFCARLKRSLLKTKENLGSGFISLFRGKKIDDDLFEELEEQLLIADVGVETTRKIITNLTEGASRKQLRDAEALYGLLKEEMGEILAKVDEPLNVEGKAPFVILMVGVNGVGKTTTIGKLARQFEQQGKSVMLAAGDTFRAAAVEQLQVWGQRNNIPVIAQHTGADSASVIFDAIQAAKARNIDVLIADTAGRLQNKSHLMEELKKIVRVMKKLDVEAPHEVMLTIDASTGQNAVSQAKLFHEAVGLTGITLTKLDGTAKGGVIFSVADQFGIPIRYIGVGERIEDLRPFKADDFIEALFARED
modifications: BODIPY FL (Bpy) on cysteine 196
Kd [3]: 180 nM
